Data from the supplement of paper PMC10724198.
± gives the standard deviation of the averaged measurements.

Tests used:
Saccharomyces cerevisiae [1] = assay: protein stability index of tFT-peptide fusion (C-terminal peptide) (PSI (0-1 scale)); higher = more stable (slower turnover)
Method: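 MPS profiling in S. cerevisiae of the tFT-X12 degron library: putative degron peptides plus stable controls, 12 aa, fused to the C-terminus of a sfGFP-mCherry timer. Cells are FACS-sorted into 8 mCherry/sfGFP bins and deep-sequenced. PSI runs from 0 (unstable) to 1 (stable). Backgrounds are wild type, das1Δ and doa10Δ at 30 °C, and wild type, das1Δ, cdc34-1 and cdc53-1 at 37 °C; 2-3 technical replicates each.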

Saccharomyces cerevisiae [2] = assay: as above; conditions: genetic background: wild type; temperature: 30 C
[3] = genetic background: cdc34-1, temperature: 37 C
[4] = genetic background: cdc53-1, temperature: 37 C
[5] = genetic background: das1 deletion, temperature: 30 C
[6] = genetic background: das1 deletion, temperature: 37 C
[7] = genetic background: doa10 deletion, temperature: 30 C
[8] = genetic background: wild type, temperature: 30 C
[9] = genetic background: wild type, temperature: 37 C
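Also: PSI is a weighted mean of sequencing reads over stability bins, variants kept only with over 10 reads, mCherry proximal and sfGFP distal, peptide attached via GGGS linker.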

| Sequence | protein stability index (Saccharomyces cerevisiae [1]; [3]) | protein stability index (Saccharomyces cerevisiae [1]; [4]) | protein stability index (Saccharomyces cerevisiae [1]; [5]) | protein stability index (Saccharomyces cerevisiae [1]; [6]) | protein stability index (Saccharomyces cerevisiae [1]; [7]) | protein stability index (Saccharomyces cerevisiae [1]; [8]) | protein stability index (Saccharomyces cerevisiae [1]; [9]) | protein stability index (Saccharomyces cerevisiae [2]) |
| --- | --- | --- | --- | --- | --- | --- | --- | --- |
| DRRFLVMISVSL | 0.33 ± 0.01 | 0.357 ± 0.016 | 0.272 ± 0.045 | 0.458 ± 0.008 | 0.251 ± 0.0083 | 0.262 ± 0.028 | 0.414 ± 0.0086 | 0.398 ± 0.039 |
| FSSYLSALLIVV | 0.102 ± 0.047 | 0.1279 ± 0.00017 | 0.176 ± 0.017 | 0.242 ± 0.0039 | 0.155 ± 0.0065 | 0.167 ± 0.029 | 0.214 ± 0.019 | 0.246 ± 0.012 |
| NGSCRVVMYIKG | 0.667 ± 0.014 | 0.731 ± 0.022 | 0.592 ± 0.025 | 0.717 ± 0.014 | 0.588 ± 0.027 | 0.61 ± 0.0079 | 0.662 ± 0.017 | 0.552 ± 0.08 |
| GYGAVHWWFWLF | 0.604 ± 0.052 | 0.6675 ± 0.0043 | 0.587 ± 0.04 | 0.7066 ± 0.006 | 0.1934 ± 0.0013 | 0.214 ± 0.026 | 0.3761 ± 0.0034 | 0.31 ± 0.027 |
| LRCIFVVVSFTP | 0.0799 ± 0.045 | 0.2 ± 0.025 | 0.172 ± 0.035 | 0.305 ± 0.014 | 0.129 ± 0.0095 | 0.153 ± 0.035 | 0.25 ± 0.0035 | 0.291 ± 0.15 |
| GYVCVGLVYSVA | 0.372 ± 0.041 | 0.411 ± 0.017 | 0.267 ± 0.038 | 0.463 ± 0.0037 | 0.216 ± 0.0035 | 0.249 ± 0.038 | 0.433 ± 0.0093 | 0.337 ± 0.072 |
| GFRMACYIRVLS | 0.337 ± 0.015 | 0.38 ± 0.017 | 0.245 ± 0.046 | 0.445 ± 0.0051 | 0.175 ± 0.01 | 0.182 ± 0.026 | 0.286 ± 0.02 | 0.296 ± 0.016 |
| FWFVSVFIVFFC | 0.185 ± 0.0033 | 0.26 ± 0.021 | 0.222 ± 0.043 | 0.337 ± 0.022 | 0.179 ± 0.018 | 0.164 ± 0.034 | 0.279 ± 0.018 | 0.223 ± 0.026 |
| EFCITAFVSVLT | 0.452 ± 0.029 | 0.431 ± 0.017 | 0.324 ± 0.033 | 0.483 ± 0.017 | 0.287 ± 0.011 | 0.329 ± 0.025 | 0.462 ± 0.0064 | 0.435 ± 0.012 |
| SFYVWILLWSYY | 0.26 ± 0.0071 | 0.256 ± 0.012 | 0.252 ± 0.023 | 0.384 ± 0.032 | 0.223 ± 0.015 | 0.214 ± 0.024 | 0.323 ± 0.014 | 0.294 ± 0.021 |
| LPRDPLHAQIAS | 0.647 ± 0.019 | 0.696 ± 0.0026 | 0.645 ± 0.019 | 0.6959 ± 0.0017 | 0.223 ± 0.0072 | 0.257 ± 0.031 | 0.516 ± 0.036 | 0.384 ± 0.069 |
| IWCQVGAFLVVF | 0.218 ± 0.0075 | 0.257 ± 0.0071 | 0.209 ± 0.024 | 0.352 ± 0.0047 | 0.18 ± 0.01 | 0.198 ± 0.02 | 0.337 ± 0.0084 | 0.307 ± 0.027 |
| SREPPTSTSSRH | 0.6388 ± 0.0031 | 0.709 ± 0.032 | 0.685 ± 0.012 | 0.669 ± 0.016 | 0.696 ± 0.025 | 0.703 ± 0.011 | 0.679 ± 0.0072 | 0.519 ± 0.13 |
| LQFSLPCFLLIF | 0.145 ± 0.0042 | 0.134 ± 0.022 | 0.205 ± 0.019 | 0.253 ± 0.0062 | 0.211 ± 0.0099 | 0.159 ± 0.015 | 0.208 ± 0.019 | 0.221 ± 0.033 |
| FRQEVLHWRQHS | 0.622 ± 0.064 | 0.712 ± 0.032 | 0.633 ± 0.035 | 0.727 ± 0.028 | 0.167 ± 0.048 | 0.145 ± 0.035 | 0.332 ± 0.015 | 0.342 ± 0.077 |
| VVTVCIIRLAWG | 0.219 ± 0.0046 | 0.315 ± 0.056 | 0.215 ± 0.025 | 0.386 ± 0.014 | 0.189 ± 0.013 | 0.225 ± 0.018 | 0.342 ± 0.019 | 0.367 ± 0.036 |
| VFRYWCGIFCLT | 0.688 ± 0.052 | 0.701 ± 0.054 | 0.613 ± 0.025 | 0.789 ± 0.045 | 0.528 ± 0.027 | 0.547 ± 0.019 | 0.6715 ± 0.0057 | 0.478 ± 0.07 |
| FFTLLLFLFFSV | 0.352 ± 0.035 | 0.278 ± 0.032 | 0.3 ± 0.026 | 0.435 ± 0.039 | 0.395 ± 0.0048 | 0.293 ± 0.03 | 0.411 ± 0.022 | 0.321 ± 0.0086 |
| HYATLMSLRKVL | 0.6682 ± 0.0023 | 0.716 ± 0.036 | 0.64 ± 0.022 | 0.7219 ± 0.0017 | 0.128 ± 0.0077 | 0.137 ± 0.022 | 0.316 ± 0.032 | 0.27 ± 0.047 |
| ISVQKRRAIEII | 0.586 ± 0.008 | 0.6379 ± 0.0021 | 0.496 ± 0.03 | 0.626 ± 0.0078 | 0.266 ± 0.008 | 0.305 ± 0.018 | 0.492 ± 0.03 | 0.451 ± 0.013 |

| Sequence | protein stability index (Saccharomyces cerevisiae [1]; [3]) | protein stability index (Saccharomyces cerevisiae [1]; [4]) | protein stability index (Saccharomyces cerevisiae [1]; [5]) | protein stability index (Saccharomyces cerevisiae [1]; [6]) | protein stability index (Saccharomyces cerevisiae [1]; [7]) | protein stability index (Saccharomyces cerevisiae [1]; [8]) | protein stability index (Saccharomyces cerevisiae [1]; [9]) | protein stability index (Saccharomyces cerevisiae [2]) |
| --- | --- | --- | --- | --- | --- | --- | --- | --- |
| GMGYISVVVWSH | 0.0293 ± 0.0072 | 0.1 ± 0.029 | 0.141 ± 0.046 | 0.2283 ± 0.00048 | 0.104 ± 0.015 | 0.114 ± 0.017 | 0.155 ± 0.017 | 0.208 ± 0.0092 |
| RLFMVLYRRFVL | 0.67 ± 0.052 | 0.72 ± 0.013 | 0.626 ± 0.019 | 0.716 ± 0.018 | 0.443 ± 0.015 | 0.45 ± 0.023 | 0.608 ± 0.016 | 0.491 ± 0.069 |
| SPKFMCSLSCWW | 0.714 ± 0.026 | 0.77647 ± 0.00063 | 0.685 ± 0.071 | 0.7527 ± 0.006 | 0.6577 ± 0.0042 | 0.665 ± 0.014 | 0.744 ± 0.021 | 0.732 ± 0.011 |
| AFFALGSFFFLL | 0.631 ± 0.042 | 0.685 ± 0.0071 | 0.586 ± 0.039 | 0.7296 ± 0.0054 | 0.265 ± 0.0044 | 0.289 ± 0.03 | 0.519 ± 0.034 | 0.0874 ± 0.015 |
| VAVGFVLGLCVV | 0.392 ± 0.042 | 0.418 ± 0.013 | 0.348 ± 0.03 | 0.4701 ± 0.0042 | 0.31 ± 0.012 | 0.35 ± 0.021 | 0.431 ± 0.012 | 0.447 ± 0.011 |
| FLVLLFCLFFCF | 0.463 ± 0.053 | 0.447 ± 0.021 | 0.43 ± 0.024 | 0.552 ± 0.015 | 0.524 ± 0.007 | 0.43 ± 0.033 | 0.4952 ± 0.0042 | 0.462 ± 0.026 |
| FTYCIVFFFSRL | 0.428 ± 0.024 | 0.537 ± 0.038 | 0.383 ± 0.038 | 0.571 ± 0.045 | 0.379 ± 0.011 | 0.391 ± 0.03 | 0.494 ± 0.021 | 0.457 ± 0.014 |
| VFSAGFSTISLF | 0.745 ± 0.037 | 0.792 ± 0.03 | 0.678 ± 0.049 | 0.789 ± 0.012 | 0.6674 ± 0.0061 | 0.666 ± 0.012 | 0.741 ± 0.011 | 0.704 ± 0.39 |
| WSCGRVWQRFCD | 0.675 ± 0.019 | 0.74 ± 0.01 | 0.674 ± 0.018 | 0.718 ± 0.039 | 0.678 ± 0.018 | 0.631 ± 0.014 | 0.711 ± 0.016 | 0.7065 ± 0.0045 |
| LWLISTYQLIGI | 0.454 ± 0.021 | 0.583 ± 0.048 | 0.433 ± 0.011 | 0.5727 ± 0.0033 | 0.431 ± 0.022 | 0.451 ± 0.0091 | 0.536 ± 0.034 | 0.521 ± 0.032 |
| VLFIKKTLMRIQ | 0.558 ± 0.008 | 0.685 ± 0.0057 | 0.621 ± 0.0064 | 0.66 ± 0.015 | 0.268 ± 0.025 | 0.331 ± 0.027 | 0.537 ± 0.045 | 0.396 ± 0.0084 |
| YAFTCFLLVVAP | 0.172 ± 0.0073 | 0.23 ± 0.011 | 0.167 ± 0.021 | 0.302 ± 0.011 | 0.1642 ± 0.0014 | 0.16 ± 0.015 | 0.259 ± 0.022 | 0.237 ± 0.013 |
| CVFCLTVFVRFL | 0.197 ± 0.0067 | 0.26 ± 0.018 | 0.192 ± 0.028 | 0.346 ± 0.015 | 0.128 ± 0.014 | 0.151 ± 0.022 | 0.2572 ± 0.0012 | 0.243 ± 0.011 |
| AYFLKRSSILVR | 0.311 ± 0.05 | 0.376 ± 0.015 | 0.241 ± 0.031 | 0.439 ± 0.011 | 0.2062 ± 0.002 | 0.217 ± 0.034 | 0.395 ± 0.011 | 0.352 ± 0.017 |
| LSIALPFPVLCR | 0.0213 ± 0.0045 | 0.038 ± 0.03 | 0.115 ± 0.019 | 0.091924 ± 4.9e-05 | 0.0844 ± 0.017 | 0.0877 ± 0.025 | 0.0459 ± 0.011 | 0.134 ± 0.012 |
| VSFLLLSYLCSF | 0.341 ± 0.0084 | 0.389 ± 0.01 | 0.279 ± 0.031 | 0.46 ± 0.011 | 0.172 ± 0.0023 | 0.187 ± 0.019 | 0.322 ± 0.0035 | 0.266 ± 0.012 |
| GCIFGNVVFVRV | 0.602 ± 0.031 | 0.6098 ± 0.0023 | 0.424 ± 0.03 | 0.6335 ± 0.0023 | 0.433 ± 0.02 | 0.433 ± 0.022 | 0.611 ± 0.0075 | 0.472 ± 0.062 |
| FLFVFLGVYGHV | 0.281 ± 0.02 | 0.409 ± 0.018 | 0.271 ± 0.044 | 0.494 ± 0.027 | 0.27 ± 0.0047 | 0.288 ± 0.029 | 0.46 ± 0.0054 | 0.404 ± 0.012 |
| RRFKINKKNKKF | 0.683 ± 0.028 | 0.749 ± 0.035 | 0.64 ± 0.048 | 0.761 ± 0.016 | 0.172 ± 0.026 | 0.189 ± 0.061 | 0.524 ± 0.12 | 0.339 ± 0.052 |
